The record followed here is PMC4600761.

In test [1] the target is mtq-SNAP25b (mTurquoise fused to the N terminus of synaptosomal-associated protein 25b) (mouse) (UniProt P60879). As to the kind of experiment: FRET or BRET. A general note: In BRET a luciferase serves as donor, and the signal depends on an acceptor being close.
The target in test [2] is mtq-Syx (mTurquoise fused to the N terminus of syntaxin1A) (rat) (UniProt P32851). The experiment in a line: FRET or BRET.
For test [3], the target named is mtq-SNAP25b (mTurquoise fused to the N terminus of synaptosomal-associated protein 25b) (mouse) (UniProt P60879). The experiment in a line: FRET or BRET; two-photon FLIM, A1 fraction; plasma membrane of β cells in mouse islets of Langerhans, probes by lentivirus, resting state.
Test [4] deals with mtq-Syx (mTurquoise fused to the N terminus of syntaxin1A) (rat) (UniProt P32851). The test is described as above.
Test [5] deals with mtq2-Syx (mTurquoise2 fused to the N terminus of syntaxin1A) (rat) (UniProt P32851). The experiment in a line: FRET or BRET; two-photon FLIM, A1 fraction; Schaffer collateral boutons and axons in the CA1 region of rat hippocampal slice culture, probes by AAV1, resting.
mtq2-Syx (mTurquoise2 fused to the N terminus of syntaxin1A) (rat), sequence (P32851 whole entry, the tested form may be a part): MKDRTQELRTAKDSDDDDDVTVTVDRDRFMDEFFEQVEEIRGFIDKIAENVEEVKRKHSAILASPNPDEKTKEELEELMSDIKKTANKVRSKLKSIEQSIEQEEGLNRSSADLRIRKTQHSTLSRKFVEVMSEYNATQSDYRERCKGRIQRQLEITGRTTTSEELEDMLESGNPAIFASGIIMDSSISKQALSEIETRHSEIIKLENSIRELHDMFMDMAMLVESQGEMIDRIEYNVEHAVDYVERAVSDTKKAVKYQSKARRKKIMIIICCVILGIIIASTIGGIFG
The target of test [6] is mtq-Syx (mTurquoise fused to the N terminus of syntaxin1A) (rat) (UniProt P32851). The experiment in a line: FRET or BRET; two-photon FLIM, A1 fraction; rat cortical neurons in dissociated culture after chemical fixation and counterstaining with anti-synaptophysin antibody.
For test [7], the target named is mtq-SNAP25b (mTurquoise fused to the N terminus of synaptosomal-associated protein 25b) (mouse) (UniProt P60879). The experiment in a line: FRET or BRET; two-photon FLIM, time-lapse (1.8 s), A1 from average lifetime (τ1 0.5 ns assumed); β cells in mouse islets stimulated with 16 mM glucose, region of 0.5 μm diameter around single exocytotic events.
The target is the same in test [8]. As to the kind of experiment: FRET or BRET; two-photon FLIM of the mtq donor; fast decay component (A1 fraction) taken as the binding fraction of the donor; live rat cortical neurons in dissociated culture, lipofected, resting; boutons and axons.
Test [9] addresses mtq-Syx (mTurquoise fused to the N terminus of syntaxin1A) (rat) (UniProt P32851). The description is as above.
The target of test [10] is Syx-mtq2 (mTurquoise2 fused to the C terminus of syntaxin1A) (rat) (UniProt P32851). As to the kind of experiment: FRET or BRET; two-photon FLIM, A1 fraction; Schaffer collateral boutons in rat hippocampal slice culture, probes by AAV1, during 300 mM sucrose stimulation.
Syx-mtq2 (mTurquoise2 fused to the C terminus of syntaxin1A) (rat), sequence (P32851 whole entry, the tested form may be a part): as above
Test [11] has the same target. As to the kind of experiment: FRET or BRET; two-photon FLIM, A1 fraction; Schaffer collateral boutons and axons in the CA1 region of rat hippocampal slice culture, probes by AAV1, resting.
Test [12] addresses Syx-mtq (mTurquoise fused to the C terminus of syntaxin1A) (rat) (UniProt P32851). As to the kind of experiment: FRET or BRET; two-photon FLIM, time-lapse (18 s accumulation); rat cortical neurons in dissociated culture during 300 mM sucrose stimulation; A1 from decay curve fitting or from average lifetime (τ1 0.5 ns assumed).
Test [13] has the same target. The experiment in a line: FRET or BRET; two-photon FLIM of the mtq donor; fast decay component (A1 fraction) taken as the binding fraction of the donor; live rat cortical neurons in dissociated culture, lipofected, resting; boutons and axons.

mtq-SNAP25b (mTurquoise fused to the N terminus of synaptosomal-associated protein 25b) (mouse), sequence (P60879 whole entry, the tested form may be a part): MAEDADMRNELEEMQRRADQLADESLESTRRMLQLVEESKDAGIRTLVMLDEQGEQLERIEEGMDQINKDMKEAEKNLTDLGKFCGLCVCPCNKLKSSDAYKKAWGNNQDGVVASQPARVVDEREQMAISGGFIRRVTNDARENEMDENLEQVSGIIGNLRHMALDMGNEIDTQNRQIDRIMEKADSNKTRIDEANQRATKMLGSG
Syx-mtq (mTurquoise fused to the C terminus of syntaxin1A) (rat), sequence (P32851 whole entry, the tested form may be a part): as the sequence (P32851 whole entry, the tested form may be a part) above
mtq-Syx (mTurquoise fused to the N terminus of syntaxin1A) (rat), sequence (P32851 whole entry, the tested form may be a part): as above

As for “Ven-VAMP2 (Venus fused to the N terminus of vesicle-associated membrane protein 2) (from UniProt P63045 1-116) (natural protein)”, in test [1], the other was determined as 14.5%. Moreover, the other in test [2] stood at 16.3%. Also, the A1 fraction (binding fraction), plasma membrane of resting β cells in test [3] is under 2%. Moreover, the A1 fraction (binding fraction), plasma membrane of resting β cells in [4] was under 2%. In [5], the mean trans-SNARE fraction in boutons (A1b−A1a) amounted to 11.9% and the trans-SNARE fraction in the active zone (A1s–A1a), spines with volumes >0.25 is 27.7%. In test [6], this substance registered an A1 fraction (binding fraction), boutons, after fixation of 33.2%; an A1 fraction (binding fraction), pixels in axons of 15.6%; an A1 fraction (binding fraction), pixels of boutons negative for synaptophysin of 17.4%; an A1 fraction (binding fraction), pixels of boutons positive for synaptophysin of 38.8%. The peak A1 fraction (binding fraction) before single exocytotic events, averaged traces of 61 events, 16 mM glucose in [7] was 8.3%. In test [8], this substance came in with an A1 fraction (binding fraction), axons of 22.7% and an A1 fraction (binding fraction), boutons of 36.7%. In [9], this substance showed an A1 fraction (binding fraction), axons of 22.4%; an A1 fraction (binding fraction), boutons, live of 34.1%; a trans-SNARE fraction in each bouton (A1b−A1a) of 11.6%.

On to “VAMP2-Ven (Venus fused to the C terminus of VAMP2) (from UniProt P63045 1-116) (natural protein)”, for which, in [10], the A1 fraction (FRET of cis-complexes), boutons, during sucrose stimulation is 13.6%. Besides, the A1 fraction (FRET of cis-complexes), boutons, resting state in [11] was found to be 3.7%. Also, in test [12], the increase in the A1 fraction in boutons on 300 mM sucrose (average lifetime) was 12.9% and the increase in the A1 fraction in boutons on 300 mM sucrose (decay curve fitting) turned out to be 11.8%. For the same substance, in test [13], the A1 fraction (binding fraction, cis-complex), axons was 21.5% and the A1 fraction (binding fraction, cis-complex), boutons came to 24.7%.
